This assay has as its target T1, streptavidin (UniProt P22629 25-183).
T1 construct: streptavidin; Commercial streptavidin is usually a homotetramer of a processed (core) form; also called SA; source: bought: Wako Pure Chemical Industries (ELISA)
Nature of the assay: fluorescence polarisation; 4 pmol FAM-labelled peptide with various concentrations of the protein; 50 mM Tris-HCl pH 8.0, 150 mM NaCl, 1 mM TCEP-NaOH, 30 °C; Klotz plot, non-linear least squares fit. As to conditions: both partners purified.

5/6‑FAM = 5/6-carboxyfluorescein

T1 sequence (P22629 25-183): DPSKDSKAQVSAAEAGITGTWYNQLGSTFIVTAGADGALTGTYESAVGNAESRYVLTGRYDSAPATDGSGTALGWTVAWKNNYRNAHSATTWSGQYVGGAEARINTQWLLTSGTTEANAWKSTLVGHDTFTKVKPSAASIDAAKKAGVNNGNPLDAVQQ

B1: mock (Sal-unconjugated) fluorescent peptide (H2N-K-5/6-FAM-A-M-W-C-Q-Y-H-P-Q-N-C-Y-K-M-NH2) (peptide)
peptide: H-K(5/6‑FAM)AMWCQYHPQNCYKM-NH2
modifications: cysteine pairing not given here
notes: cysteines not alkylated; Assayed under reducing conditions (1 mM TCEP), so the cysteines are free thiols; also called mock peptide; unmodified fluorescent peptide; source: synthetic peptide (solid phase synthesis, reverse-phase HPLC)
As to B1, the “fold lower affinity than the Sal-conjugated peptide” value was around 10 fold.

B2: Sal-conjugated fluorescent peptide possessing the sequence of clone 7 (K-5/6-FAM-A-M-W-C*-Q-Y-H-P-Q-N-C*-Y-K-M-NH2) (peptide)
peptide: KAMWCQYHPQNCYKM
modifications: 5/6-FAM on the N-terminal lysine (K-5/6-FAM); Sal-conjugated Cys (C*) at both cysteines; C-terminal amide (NH2)
notes: Linear peptide; both cysteines are alkylated with 4-acetamidosalicylic acid (thioether); also called Sal-conjugated peptide; Sal-conjugated linear peptide; source: synthetic peptide (solid phase synthesis, HPLC), then conjugated with Sal-IA and purified by reverse-phase HPLC
The molecule B2 returned a Kd of 180 nM.

For the origin of these results see article PMC6271298, “Pharmacophore Generation from a Drug-like Core Molecule Surrounded by a Library Peptide via the 10BASEd-T on Bacteriophage T7” (Molecules, 2014).
